Where two headings read alike, the source gives them in different places. Values belong to the binder of their own block, whether it stands above or below them.
Experiments:
Experiment in all cases: SPR
[1] = molecular target: T1, Nb6E-biotin (biotin at the C terminus (sortagging))
[2] = molecular target: T1, Nb6E-biotin; remark: listed apart in the source
[3] = molecular target: T1, Nb6E-biotin; remark: listed apart in the source
[4] = molecular target: Nb127–biotin (biotin at the C terminus (sortagging))
Chain of Nb127–biotin (biotin at the C terminus (sortagging)) (VHH, as listed by the source): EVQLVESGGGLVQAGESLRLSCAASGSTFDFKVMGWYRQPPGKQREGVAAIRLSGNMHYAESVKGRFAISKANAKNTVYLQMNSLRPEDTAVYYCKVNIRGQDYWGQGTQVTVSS

T1 sequence (VHH, as listed by the source): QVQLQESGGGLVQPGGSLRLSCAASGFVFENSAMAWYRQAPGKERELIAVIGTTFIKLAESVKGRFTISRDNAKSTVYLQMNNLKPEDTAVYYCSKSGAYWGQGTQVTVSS

- Kd [1]: 4.2 nM
Binder: GGGQADQEAKELARQIS [G3-6E]

- Kd [2]: 78.2 nM
Binder: QADQEAKEMARQIS [6E-M9]

- Kd [3]: 9.2 nM
Binder: QADQEAKWLARQIS [6E-W8]

- Kd [4]: 16.8 nM
Binder: SFEDFWKGED [127-tag peptide]

- Kd [2]: 159 nM
Binder: QADQEAKELARQIS [6E-WT peptide]

- Kd [3]: 17.6 nM
Binder: QADQEAWELARQIS [6E-W7]

- Kd [3]: 15.2 nM
Binder: QADWEAKELARQIS [6E-W4]
